Measured values: publication PMC5935067

Target: microtubules polymerised from bovine brain tubulin (bovine), Q6B856
Assay: TIRF microscopy, single-molecule dwell-time analysis

B1: His-CLASP2γ-eGFP-StrepII (full-length human CLASP2γ with C-terminal eGFP) (natural protein)
chain: MAMGDDKSFDDEESVDGNRPSSAASAFKVPAPKTSGNPANSARKPGSAGGPKVGGASKEGGAGAVDEDDFIKAFTDVPSIQIYSSRELEETLNKIREILSDDKHDWDQRANALKKIRSLLVAGAAQYDCFFQHLRLLDGALKLSAKDLRSQVVREACITVAHLSTVLGNKFDHGAEAIVPTLFNLVPNSAKVMATSGCAAIRFIIRHTHVPRLIPLITSNCTSKSVPVRRRSFEFLDLLLQEWQTHSLERHAAVLVETIKKGIHDADAEARVEARKTYMGLRNHFPGEAETLYNSLEPSYQKSLQTYLKSSGSVASLPQSDRSSSSSQESLNRPFSSKWSTANPSTVAGRVSAGSSKASSLPGSLQRSRSDIDVNAAAGAKAHHAAGQSVRSGRLGAGALNAGSYASLEDTSDKLDGTASEDGRVRAKLSAPLAGMGNAKADSRGRSRTKMVSQSQPGSRSGSPGRVLTTTALSTVSSGVQRVLVNSASAQKRSKIPRSQGCSREASPSRLSVARSSRIPRPSVSQGCSREASRESSRDTSPVRSFQPLASRHHSRSTGALYAPEVYGASGPGYGISQSSRLSSSVSAMRVLNTGSDVEEAVADALKKPARRRYESYGMHSDDDANSDASSACSERSYSSRNGSIPTYMRQTEDVAEVLNRCASSNWSERKEGLLGLQNLLKNQRTLSRVELKRLCEIFTRMFADPHGKRVFSMFLETLVDFIQVHKDDLQDWLFVLLTQLLKKMGADLLGSVQAKVQKALDVTRESFPNDLQFNILMRFTVDQTQTPSLKVKVAILKYIETLAKQMDPGDFINSSETRLAVSRVITWTTEPKSSDVRKAAQSVLISLFELNTPEFTMLLGALPKTFQDGATKLLHNHLRNTGNGTQSSMGSPLTRPTPRSPANWSSPLTSPTNTSQNTLSPSAFDYDTENMNSEDIYSSLRGVTEAIQNFSFRSQEDMNEPLKRDSKKDDGDSMCGGPGMSDPRAGGDATDSSQTALDNKASLLHSMPTHSSPRSRDYNPYNYSDSISPFNKSALKEAMFDDDADQFPDDLSLDHSDLVAELLKELSNHNERVEERKIALYELMKLTQEESFSVWDEHFKTILLLLLETLGDKEPTIRALALKVLREILRHQPARFKNYAELTVMKTLEAHKDPHKEVVRSAEEAASVLATSISPEQCIKVLCPIIQTADYPINLAAIKMQTKVIERVSKETLNLLLPEIMPGLIQGYDNSESSVRKACVFCLVAVHAVIGDELKPHLSQLTGSKMKLLNLYIKRAQTGSGGADPTTDVSGQS
modifications: not checked
Question: How did the dwell time at growing microtubule tips, with 10 nM EB1 turn out when B1 was run?
Answer: 1.8 s

Question: What about the dwell time of lattice-binding events, with 10 nM EB1 of the same binder?
Answer: 0.74 s

Question: And the mean dwell time on microtubule tips, without EB1?
Answer: 0.67 s

Question: What about the mean dwell time on the microtubule lattice, without EB1 of the same binder?
Answer: 0.49 s

Question: What about the tip association rate, with 10 nM EB1 of the same binder?
Answer: 5.3e+08 M⁻¹ s⁻¹

Question: And the tip association rate, without EB1?
Answer: 2.9e+08 M⁻¹ s⁻¹
